# According to PMC8391708, “Anti-Inflammatory Effects of C1q/Tumor Necrosis Factor-Related Protein 3 (CTRP3) in Endothelial Cells” (Cells, 2021):
# Target: the molecule itself
# Assay: SDS-PAGE; recombinant CTRP3 run on SDS-polyacrylamide gels, stained with Coomassie; band at <100 kDa read as a trimer
protein,measurement,value
"C1q/TNF-related protein 3 (CTRP3), recombinant (natural protein, human, UniProt Q9BXJ4 23-246, looked up, C1q/TNF-related protein 3 (CTRP3), human, recombinant; also called C1q/Tumor Necrosis Factor-Related Protein 3; recombinant human CTRP3; source: baculovirus expression system in insect H5 cells) QDEYMESPQTGGLPPDCSKCCHGDYSFRGYQGPPGPPGPPGIPGNHGNNGNNGATGHEGAKGEKGDKGDLGPRGERGQHGPKGEKGYPGIPPELQIAFMASLATHFSNQNSGIIFSSVETNIGNFFDVMTGRFGAPVSGVYFFTFSMMKHEDVEEVYVYLMHNGNTVFSMYSYEMKGKSDTSSNHAVLKLAKGDEVWLRMGNGALHGDHQRFSTFAGFLLFETK",stoichiometry N,3
